Data published in article PMC2837123.

Biological target: PFV integrase (IN) (prototype foamy virus, UniProt P14350 752-1143)
Assay: crystal structure

B1: pre-processed PFV U5 end (17/19 nt) (dsDNA)
DNA 1: TACAAAATTCCATGACA
DNA 2: ATTGTCATGGAATTTTGTA
B1: binds.
